Test results taken from patent US5670637.

Experiments:
[1] = target: T1, T4 DNA polymerase (gp43) (Bacteriophage T4) (UniProt P04415); experiment: filter; conditions: random loop population, 50-fold lower affinity
T1 sequence: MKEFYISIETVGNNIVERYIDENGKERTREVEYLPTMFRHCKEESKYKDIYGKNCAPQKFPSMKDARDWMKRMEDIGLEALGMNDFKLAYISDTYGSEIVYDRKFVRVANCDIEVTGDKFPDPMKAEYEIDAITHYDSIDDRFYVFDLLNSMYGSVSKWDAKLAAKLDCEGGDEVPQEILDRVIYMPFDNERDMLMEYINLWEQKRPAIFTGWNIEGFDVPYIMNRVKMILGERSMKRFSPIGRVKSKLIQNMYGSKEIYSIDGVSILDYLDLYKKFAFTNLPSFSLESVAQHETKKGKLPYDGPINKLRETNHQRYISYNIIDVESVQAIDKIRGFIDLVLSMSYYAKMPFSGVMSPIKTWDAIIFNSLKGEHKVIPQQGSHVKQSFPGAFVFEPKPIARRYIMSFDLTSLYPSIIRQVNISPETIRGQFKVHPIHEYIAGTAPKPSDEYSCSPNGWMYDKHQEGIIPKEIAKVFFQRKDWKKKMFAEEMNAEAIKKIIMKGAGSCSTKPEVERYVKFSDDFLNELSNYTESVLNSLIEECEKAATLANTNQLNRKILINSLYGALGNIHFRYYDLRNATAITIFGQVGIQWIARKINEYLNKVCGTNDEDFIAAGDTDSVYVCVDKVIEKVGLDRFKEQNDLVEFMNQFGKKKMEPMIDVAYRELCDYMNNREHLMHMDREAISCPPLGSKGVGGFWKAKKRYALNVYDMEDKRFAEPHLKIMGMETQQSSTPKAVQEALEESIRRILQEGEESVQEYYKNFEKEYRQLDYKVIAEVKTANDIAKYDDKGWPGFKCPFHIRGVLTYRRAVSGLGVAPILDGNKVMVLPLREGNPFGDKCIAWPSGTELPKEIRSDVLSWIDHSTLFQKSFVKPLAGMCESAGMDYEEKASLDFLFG

[2] = target: T1, T4 DNA polymerase (gp43) (Bacteriophage T4); experiment: FP; conditions: filter binding; 200 mM KOAc, 50 mM Tris-HCl pH 7.7, 37 C
[3] = target: HIV-1 reverse transcriptase p66/p51 heterodimer (Human immunodeficiency virus 1) (UniProt P04585+P04585); experiment: filter; conditions: half-maximal binding; 200 mM KOAc, 50 mM Tris-HCl pH 7.7, 10 mM DTT
[4] = target: human tissue plasminogen activator (htPA) (Homo sapiens) (UniProt P00750); experiment: filter; conditions: 150 mM NaAc, 50 mM Tris-acetate pH 7.5
Sequence of human tissue plasminogen activator (htPA) (Homo sapiens) (P00750 36-562): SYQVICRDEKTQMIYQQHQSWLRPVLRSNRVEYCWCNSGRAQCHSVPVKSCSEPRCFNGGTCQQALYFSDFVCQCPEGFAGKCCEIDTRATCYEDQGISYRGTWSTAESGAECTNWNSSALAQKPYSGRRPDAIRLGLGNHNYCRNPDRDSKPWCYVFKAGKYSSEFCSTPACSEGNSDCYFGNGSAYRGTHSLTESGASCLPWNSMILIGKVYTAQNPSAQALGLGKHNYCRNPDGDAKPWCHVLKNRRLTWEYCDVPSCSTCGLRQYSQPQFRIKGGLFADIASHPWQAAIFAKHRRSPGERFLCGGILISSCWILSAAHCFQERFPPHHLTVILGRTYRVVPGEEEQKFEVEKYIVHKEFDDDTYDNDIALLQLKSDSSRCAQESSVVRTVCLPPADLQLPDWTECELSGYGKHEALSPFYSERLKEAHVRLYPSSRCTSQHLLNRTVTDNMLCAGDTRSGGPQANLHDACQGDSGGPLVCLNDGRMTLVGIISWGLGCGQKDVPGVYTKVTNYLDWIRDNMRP

Q: Which Kd [1] does the source give for “AUAUUCCUUAGUUUAUAGCCCNNNNNNNNAGGCUCUUGAUUG [gene 43 operator RNA random 8N loop pool]” here?
A: 250 nM

Q: With “AUAUUCCUUAGUUUAUAGCCCNNNNNNNNAGGCUCUUGAUUG [gp43 RNA wild-type loop AAUAACUC]” as the sequence, how does the Kd [2] read?
A: 5 nM

Q: Which K half [3] does the source give for “GGGAGCAUCAGACUUUUAAUCUGACAAUCAAGNNNNNNNNNNNNNNNNNNNNNNNNNNNNNNNNAUCUAUGAAAGAAUUUUAUAUCUCUAUUGAAAC” here?
A: 700 nM

Q: For “GGGAGCUCAGAAUAAACGCUCAANNNNNNNNNNNNNNNNNNNNNNNNNNNNNNUUCGACAUGAGGCCCGGAUCCGGC [30N candidate pool]”, which Kd [4] is on record?
A: 70 nM
